Several values for one entry are separate records, joined by “and”; a condition that tells them apart may be missing. Identical values can stand only once. Where no end group is shown, it is not given here.
T1: alpha-conotoxin MI (CTX-MI) (Conus magus, UniProt P01521 1-14, disulfide (positions not given here); not fully specified; also: two disulfides as in P01521)
T1 chain: GRCCHPACGKNYSC-NH2

B1: MBMI-01 (ssDNA)
DNA: ATTGGCACTCCACGCATAGGTTTGGGGATGGGCAACGGTAAAAAGGGTCAAAAGGCTTTTCCTATGCGTGCTACCGTGAA
B2: MBMI-94 (ssDNA)
DNA: ATTGGCACTCCACGCATAGGAGCGGGGTTGGTTTGCGGGAGGGGGGGTGGAGGTAAGCTCCCTATGCGTGCTACCGTGAA
B3: MBMI-03 (ssDNA)
DNA: ATTGGCACTCCACGCATAGGGGCGCTTGTGGTGTAAGGGTTGGGTATATGTCGTAATAGGCCTATGCGTGCTACCGTGAA
B4: MBMI-22 (ssDNA)
DNA: ATTGGCACTCCACGCATAGGCAAGAAGGGGGAGGGTGGTATGTGTCGGGGGGAGGGGTGGCCTATGCGTGCTACCGTGAA
B5: MBMI-92 (ssDNA)
DNA: ATTGGCACTCCACGCATAGGCTCGCGGAGGGAGGGGTTTTGGGGGGCGGGATGGTATTGGCCTATGCGTGCTACCGTGAA
B6: MBMI-02 (ssDNA)
DNA: ATTGGCACTCCACGCATAGGATTTGGGTTTCGGGATAAGGGGCAAAAGGACAGGTTTTGTCCTATGCGTGCTACCGTGAA
B7: MBMI-51 (ssDNA)
DNA: ATTGGCACTCCACGCATAGGAAGGTGGAATCGGAGGGGGTGCTTGGGTGGGGGTGGGATTCCTATGCGTGCTACCGTGAA
B8: MBMI-39 (ssDNA)
DNA: ATTGGCACTCCACGCATAGGGTAGGGGATTTAAGGAGGGGCCTTAGGAGGGGGGGGGTAACCTATGCGTGCTACCGTGAA
B9: MBMI-08 (ssDNA)
DNA: ATTGGCACTCCACGCATAGGCAACGGGGGGGTGGGGAGAGAAGGGTTGAGTGACAATTTGCCTATGCGTGCTACCGTGAA

Target: T1, alpha-conotoxin MI (CTX-MI)
Assay: BLI
Settings: protein: commercial; tags: none; label: biotin
B1 gave a Kd of 850 nM.
Binder B2 has a Kd of 2330 nM.
In the case of B3, the Kd is reported as 3490 nM.
Work on B4 yielded a Kd of 21200 nM.
B5 was tested, and the Kd was 260 nM.
With B6 the Kd was 2210 nM.
Binder B7 has a Kd of 14000 nM.
With B8 the Kd was 430 nM.
Binder CTCGCGGAGGGAGGGGTTTTGGGGGGCGGGATGGTATTGG (ssDNA) [MBMI-92c] has a Kd of 1320 nM.
With B9 the Kd was 12000 nM.
For ATTTGGGTTTCGGGATAAGGGGCAAAAGGACAGGTTTTGT (ssDNA) [MBMI-02c], the Kd was 1290 nM.

Same assay, conditions: protein: commercial; tags: none; label: biotin; antiparallel G-quadruplex
With TTTGGGGATGGGCAACGGTAAAAAGGGTCAAAAGGCTTTT (structured_DNA) [MBMI-01c] the Kd was 870 nM and 729 nM.

Same assay, conditions: protein: commercial; tags: none; label: biotin; remaining predicted GQ core A
In the case of TTTGGCCATGGCCAACGGTAAAAAGGCTCAAAACCCTTTT (ssDNA) [M2], the Kd is reported as 741 nM.

Same assay, conditions: protein: commercial; tags: none; label: biotin; remaining predicted GQ cores A,B
In the case of TTTGGGGATGGGCAACGGTAAAAAGGGTCAAAACCCTTTT (ssDNA) [M3], the Kd is reported as 1560 nM.

Same assay, conditions: protein: commercial; tags: none; label: biotin; remaining predicted GQ cores C,D
Binder TTTCCGGATGGGCAACGGTAAAAAGGGTCAAAAGGCTTTT (ssDNA) [M1] has a Kd of 1520 nM.
